Measured values: a protein production outcome set (Wang et al. 2014)

Experiment: label from the status in PepcDB records

With “MPMHFLLFAVVCSVLVSVLLKLAPRHRIDVFQAITWNYATAALLAWLILHPALDTLRSTTAPWVALLLLAVALPSIFLVLARSVAVAGIVRTDVAQRLSLVLSLAAAFTVFGEPVNGWKLAGLALGMVAIACIVRRPRQHVATDPLPSTTGLPWLVGVWMGFALIDLLLKHIAQAGTPSLTSLTLCFALAFLLMLGVQSVRWARGARPSTRSMLAGVLLGALNFGNILCYVRAHQVLPHSPATVFASMNLGVVVLGALVGKLGFAERLGLRGWLGLALAAPAIAAIAWGIRLG” the protein production was “failed”.

In the case of “MPMTLDLQPGQRLARGVARHLRAHGFVSVEEFVPARGLRVDVMGLGPKGEIWVIECKSSRADFQADAKWQGYLEWCDRYFWAVDMEFPAELLPAESGLLIADAYDAEIVRMAPEQKLAPARRKVLIQKFATHAARRLQALRDPEGHGIFE”, the protein production is reported as “not failed”.

With “MPNILYKIDNQYPYFTKNEKKIAQFILNYPHKVVNMTSQEIANQLETSSTSIIRLSKKVTPGGFNELKTRLSKFLPKEVTQYNVELVDNESTISLKNKLHSRSKAALSNANETINVAIIDEICDLIKNSETIFIYGYGASFVVATDLYQKLSRIGLNIQLVHETHIFTTMLATRNSNDCVIFISNNGTQSEMQSIAKVIADYHIPIATISSTSDNPVAKQSNIVLTYGQTDENEMRMGATTSLFAQMFTIDILYYRYIALNYQSSLDFITQSKIALDNYRKHLSNIDFKH” the protein production was “failed”.

In the case of “MPNKVKKRHLLDYSIFIPYLILSIVGLIMVYSSTSALQVMKGFSPTSFVINQVAFWVVGLVAMFFIYKMKTSVFQNRSFIMFAIAVITVMVLAVRIPGIGKEINGARGWIEIGGFSMQPAEYLKIMVVWYLSYILARRQKTINGGMDQFKQAAGRPLMLVFVLIALVAIQPDFGNAAILTLITIVMVLASGINYMYTYLVGGLGILGSITAIQLLIMSKGKIFPARYQYIYNRFAVFKNPFLDERNLGHQLANSYYAISNGGWFGKGLGNSVQKKGFLPEAHTDFIFAITLEELGIIGGLAILGLLMFMIARIILVGVRSKKPFNSLMCIGIGTMLLIQVFINVGGITGIIPLTGITFPFLSQGGNSLLIISIAVAFVLNISADETRQKLENEYYLSLEQNQ”, the protein production is reported as “failed”.

With “MPNNETEASMRNTLFPTLKWSLLVLMTSLLTACGFHLRGDYDIPQELSRMSLTSYDQYSTFTRMVHRQLRLNKIDLQAPAEDLPNLHLLSESTGERTLSLYQNTRAAEIELTFVASYRVTVPELGSRTFTTSVTRSYLDNPLTALAKSVERDMIEDEMRKLAASQIVRQMARLKADFARKTLDDESIEGKGITDYRVDTQEVANPVSTEGSSELEHHHHHH” the protein production was “not failed”.

In the case of “MPNNHDVNPYGIAFVPAGLPAGSALQAGDVVVSNFNAASNKQGTGTTIVKLVTDGKPVTFFQGQNLGLTTALAVLKSGYVLVGNLPTTNGATITSTGSLLVITPQGKLLSELKDPTLLDGPWDMTVIIDNGQQVTAFVSNVLNGTVARIDLNIGPNGATLLQSSHLIASGYAHRPDPAALVVGPTGLAYDAAHDMLYVASTNDNKVFAIAGAAALAHDNGPGSVIYQDSNHLRGPLALALAPNGDLVTANGDAINPDPNQSSEIVEFTPDGRFVAQMQVDPAPGSAFGLAFGLSSSGQPQFAAVNDSTNTAIVWTLRPVGGN”, the protein production is reported as “failed”.

With “MPPKTPRKTAATAAAAAAEPPAPPPPPPPEEDPEQDSGPEDLPLVRLEFEETEEPDFTALCQKLKIPDHVRERAWLTWEKVSSVDGVLGGYIQKKKELWGICIFIAAVDLDEMSFTFTELQKNIEISVHKFFNLLKEIDTSTKVDNAMSRLLKKYDVLFALFSKLERTCELIYLTQPSSSISTEINSALVLKVSWITFLLAKGEVLQMEDDLVISFQLMLCVLDYFIKLSPPMLLKEPYKTAVIPINGSPRTPRRGQNRSARIAKQLENDTRIIEVLCKEHECNIDEVKNVYFKNFIPFMNSLGLVTSNGLPEVENLSKRYEEIYLKNKDLDARLFLDHDKTLQTDSIDSFETQRTPRKSNLDEEVNVIPPHTPVRTVMNTIQQLMMILNSASDQPSENLISYFNNCTVNPKESILKRVKDIGYIFKEKFAKAVGQGCVEIGSQRYKLGVRLYYRVMESMLKSEEERLSIQNFSKLLNDNIFHMSLLACALEVVMATYSRSTSQNLDSGTDLSFPWILNVLNLKAFDFYKVIESFIKAEGNLTREMIKHLERCEHRIMESLAWLSDSPLFDLIKQSKDREGPTDHLESACPLNLPLQNNHTAADMYLSPVRSPKKKGSTTRVNSTANAETQATSAFQTQKPLKSTSLSLFYKKVYRLAYLRLNTLCERLLSEHPELEHIIWTLFQHTLQNEYELMRDRHLDQIMMCSMYGICKVKNIDLKFKIIVTAYKDLPHAVQETFKRVLIKEEEYDSIIVFYNSVFMQRLKTNILQYASTRPPTLSPIPHIPRSPYKFPSSPLRIPGGNIYISPLKSPYKISEGLPTPTKMTPRSRILVSIGESFGTSEKFQKINQMVCNSDRVLKRSAEGSNPPKPLKKLRFDIEGSDEADGSKHLPGESKFQQKLAEMTSTRTRMQKQKMNDSMDTSNKEEK” the protein production was “failed”.

In the case of “MPPSTLGLTPPFDATLLTTRPPCSRRHISRSPGARRPSPGLLTCLQPNVCPRARSAFLAISNGSRQQSGPARADAFHPVSISPFYFYSDSYEDVFMPITTKLKAVSLGVSLALAGLLVGCNQNDSDPLVKDDAYYRGQAEAMVAKLTLGEKLDLLSGPGYGSANGAINVKQDVPGVAGYINGVLRSADGIDIPALKLADGPAGVRINANRDGDSASYYATAWPIGSLLASSWDVKLVKAVGEAMGDEVRQYGVDILLAPGMNIQRNPLNGRNFEYYSEDPLLTGKIGAAMVNGVESNGVGTTIKHYFGNNSETNRNQINDIGEPRTFREIYLRGFQIAVDEAQPWAVMTSYNKVNGTYVNERRDAVTDLLRGEWKFDGLVMSDWFAGDVANNAYKQVLAGQDLIEPGNVKEQLQQSIEHGDLDEAKVNEAAIHILTQVMKSPSYNQLAISNSPDLIAHAKLARQAGAESMVLLRNDAAALPLAASSTLASFGINQINTYKGGTGSGDVNAASTTTIAQGLAARFPVNEALQSYYRDFYENNKVYHEGQFGAKGYYTCAEAPISGDLAALIANAATTQQAAVISIGRQAGEGADRSSGKGDYLLGDDERALIDAVSSAFHAQGKKVVVVLNVNGVIDTAQWSDKVDGILLAYMAGQETGHAVADVLSGAVNPSGKLAQSFPHSYASVPSAGTFPGEDTDGDGEPDDLYYNEGIYVGYRYYSTFEQAVSYPFGFGLSYTSFSYTSPAIASNTLEGGSAGNLVLTATITNTGAVAGKEAAQVYVTAPEVKLKKPLIELKAFAKTAQLAPGASEQLSFTIPASILASFDEASNQWIVEPGRYSAYISPSSDVSASTPVSFTVSKEIVVSNTTPGALALPAGVDPASVTTITR”, the protein production is reported as “failed”.

For “MPQAPTLQSFIAGRWFGQHPAQSLRSAIDGHEVARTHEEAPDFAEALAFGRHQGGKALLALDFQQRAQRLKALALYLSGRKEQLYALSHHSGATRADSWIDIEGGNSTLFSYAGLGARELPSGNLLHEGPAQSLSKLGSFAGSHILVPRGGVAVHINAFNFPIWGMLEKFAPCFLAGMPCIVKPASATSYLTEAAMRLMHESGLLPEGSLQLVIGATGDLLDRLQGQDLVTFTGSASTAGRLRANPNLIRHSVPFNAEADSLNCAILAPDVSPDDEEFELFIKEVAREMTVKAGQKCTAIRRAIIPAKQLDAVATRLRERLSKVVVGDPAVEGVRMGALASHEQQRDVAERLQSLLHSSDLLFGARDGFEPRGTNVSQGAFFAPTLLLARDPMAEGGAHDIEAFGPVSTLMAYDDLDQALELASRGKGSLVASLVTKSPAIAAQVIPRAAAWHGRLLVLDRECAGESTGHGSPLPQLKHGGPGRAGGGEELGGLRAVKHYLQRAAIQGSPSMLAAVTGEYVRGAKVLETEVHPFRRYFQDLRIGESLLTHRRTVTEADLVNFGCLSGDHFYMHFDEIAARESQFGKRIAHGYFVLSAAAGLFVSPGPGPVLANYGLDTLRFITPVGIGDTLQARLTCKRKIDQGKLSPQGTPQGVVAWDVEVSNQLGEVVASYDILTLVAKRTE”, the protein production was “failed”.

With “MPQDPRHPEHQYLDLVKHILENGARRMDRTGTGTLSVFGATMRFSLEDNTFPLLTTRRVFYRGVVEELLFFLRGETDSKVLEKKGVRIWEKNGAKQFLQSVGIDREEGDLGPIYGFQWRHFGARYETSASSYEGKGVDQIASAIAAIRANPASRRIVVSAWNPTDLGSMALPPCHVLFQFNVTDGKLSCAMYQRSGDMGLGVPFNIASYSLLTILVAHLTGLQPGEFVHFLGDAHVYLDHVDSLRQQIQRPPRAFPKLFVSPKGPRTEPEHFQYEDFELVGYDPHPAIKMNMSA” the protein production was “not failed”.

In the case of “MPQFFKRTSKIQAIIALRSIAIAIQLLLILFVNLGLAYELPWTPLVSVISLEVLFTFGSYLYYSRNHLSEKKASQKAILVQICADIIFLSLLLFFSGGATNAFVSLLLIPIAIAAVTLTPLLLTVVAFLAIASYSILLWSLPMSVMHGNMQGHFIGMGINFLFSALVVAIVVGKMARSINQQELAIAAYRENLLKQEQVTSLGVASAQVTHQLATPIATVQLLADELSEDFPDNEIVLDMQSQLTRCRDSLSEFRAMVFDIKEQVIKAINCQDLFDEITDNVRVNNPEVSLQLQKNSDEHAKDVTIDADAALLPAILNLINNAIRASKANNSNALSLTCQTIENNWQFTIRDYGKGFTLKKLNELGVKPVNSDQGFGMAVFLSHASLERLGGKLALTNHQEGGALVTLSLPISSLTSGNDYA”, the protein production is reported as “failed”.

With “MPQITIIVPVYNAERTLERCVRSIQAQTVVNWELLLIDDGSEDYSSKLCDEYAIQDSRIRVFHQVNGGASSARNVGLEYTKGEWVVFCDSDDWVDSNWLELFKNQIDNGTELIVQGFIPHGNLWQSRTGINFHGNVKTGILKLQEENILGFMCTKMYKREIIEQCGLRFDTELVLREDELFMLQYAEYISTIQCMEEGAYHYDMPDFSTKYGNIDLFNMFLKIYVVLKRIFSGEDNLLLQNYENDLTQSLFHSFVMRHDDRCKKLENYRKEVGKRVLGVKSLSQFSKYILAYVPSFQVAYLLLEAKAKIVKSMQLEHHHHHH” the protein production was “not failed”.

With “MPQPGLTTPDNDALPWQTTLLLALQHVLVVAATPITSVFLIAKALHFTDTVTASVLSATFLMCGLGAILQSLGVKGVGARLPFIMVPGGAPIAIFVAIALQTNIQTAIGAVILTSLFYFIALPIFRRCLHHFPPFIIGIMLLMVSINLIRLYGGLIIGQPGSADFAHPTSIILSLGTILITLIFALAFSGILRQLAVMFGLLAGTLLGMALGSTDFSGVSHGPLFSFPQLLPFGWPIFDLSASLPLLIYAVISMAEATGQTIATAEIVNSTQNVQQAIPRTIRGDAVMSLLGGIFGTSLIITSGENIGVVRTTNVKSRFVTAAAGGLLILIAIFAPLVRLATCLPGSVVCGTAVIVFSIIGVIGIDMIAREPLHTPGKTYALAMGLAMGMLPILVPGLYQNFPAGVQMVFGNGMAAGTLTAILVNSLFNWSEKRTQARVKS” the protein production was “failed”.

For “MPQTKQPNFLFLMADQLTAFALRMYGNGVCRTPNLDRLAARSTRFANMYCNFPLCAPSRVAMLTGRLPSSVGVYDNASEFSAEVPTFLHHLALAGYSTILSGKMHFVGPEQHHGFQERLTTDIYPSDFGWTPDWREEIPIAPTGMNMRSVIEAGECRRSMQIDYDDDVVYRGVQKIYDLGRLHRDRPFFLAVSMTHPHNPYVSTREFLDLYRPEDIDMPAVPPIPFAQQDPHSQRLWYMFRQDEYDVSDAHVRAARHAYYAMVSYVDAQVGRMLDALQAMDLDESTVVVFTADHGDMLGERGLWYKWVHFDPAVRIPLLISAPGRTRPAVRHELASLVDIFPTMLELAGVSVPDDGASPPPDGRSLAQGLGVSQDEPTGVVYGEMNGEGAHAPCLAVRQGWWKLVVAEGDPPLLFNLQDDPHELRNLAGQPATRDIERQLTALVQARWDARRLHQDILHSQARRRLVQQSRLQGDFPAWDYQPFTDASRQYVRAGAQSSPALVKGKLRYPPVAPVAPQHPRPARSNLPE”, the protein production was “failed”.

In the case of “MPQTLKPDTPAGTPAAGAVAFRRQVLPQDALLVRRVVESTGFFTPEEADVAQELVDEHLMHGAACGYHFVFATEDDDMAGYACYGPTPATEGTYDLYWIAVAPHRQHSGLGRALLAEVVHDVRLTGGRLLFAETSGIRKYAPTRRFYERAGFSAEAVLKAFYRAGDDKIIYRLEVA”, the protein production is reported as “not failed”.
